Results: the supplement of paper PMC11246515
± gives the standard deviation of the averaged measurements.

Test: total protein half-life in vivo (active degradation + dilution); higher = more stable protein
[1] = E. coli NCM3722 delta-clpP delta-lon delta-hslV, growth: N-lim chemostat, doubling time 6 h
[2] = E. coli NCM3722 delta-clpP, growth: N-lim chemostat, doubling time 6 h
[3] = E. coli NCM3722 delta-hslV, growth: N-lim chemostat, doubling time 6 h
[4] = E. coli NCM3722 delta-smpB, growth: N-lim chemostat, doubling time 6 h
[5] = wild type E. coli NCM3722, growth: C-lim chemostat, doubling time 3 h
[6] = wild type E. coli NCM3722, growth: C-lim chemostat, doubling time 6 h
[7] = wild type E. coli NCM3722, growth: C-lim chemostat, doubling time 12 h
[8] = wild type E. coli NCM3722, growth: N-lim chemostat, doubling time 6 h
[9] = wild type E. coli NCM3722, growth: N-lim chemostat, doubling time 12 h
[10] = wild type E. coli NCM3722, growth: P-lim chemostat, doubling time 6 h
[11] = wild type E. coli NCM3722, growth: P-lim chemostat, doubling time 12 h
[12] = E. coli NCM3722 delta-lon, growth: N-lim chemostat, doubling time 6 h

For “MSGAFNNDGRGISPLIATSWERCNKLMKRETWNVPHQAQGVTFASIYRRKKAMLTLGQAALEDAWEYMAPRECALFILDETACILSRNGDPQTLQQLSALGFNDGTYCAEGIIGTCALSLAAISGQAVKTMADQHFKQVLWNWAFCATPLFDSKGRLTGTIALACPVEQTTAADLPLTLAIAREVGNLLLTDSLLAETNRHLNQLNALLESMDDGVISWDEQGNLQFINAQAARVLRLDATASQGRAITELLTLPAVLQQAIKQAHPLKHVEATFESQHQFIDAVITLKPIIETQGTSFILLLHPVEQMRQLMTSQLGKVSHTFAHMPQDDPQTRRLIHFGRQAARSSFPVLLCGEEGVGKALLSQAIHNESERAAGPYIAVNCELYGDAALAEEFIGGDRTDNENGRLSRLELAHGGTLFLEKIEYLAVELQSALLQVIKQGVITRLDARRLIPIDVKVIATTTADLAMLVEQNRFSRQLYYALHAFEITIPPLRMRRGSIPALVNNKLRSLEKRFSTRLKIDDDALARLVSCAWPGNDFELYSVIENLALSSDNGRIRVSDLPEHLFTEQATDDVSATRLSTSLSFAEVEKEAIINAAQVTGGRIQEMSALLGIGRTTLWRKMKQHGIDAGQFKRRV”, the “total protein half-life in vivo” value [1] was 6.1 ± 0.41 h, the “total protein half-life in vivo” value [2] was 4.96 h and the “total protein half-life in vivo” value [3] was 3.96 h. For the same sequence, the “total protein half-life in vivo” value [4] was 4.08 ± 0.059 h, the “total protein half-life in vivo” value [5] was 2.56 ± 0.055 h and the “total protein half-life in vivo” value [6] was 4.31 ± 1 h. The “total protein half-life in vivo” value [7] was 9.42 ± 0.77 h, the “total protein half-life in vivo” value [8] was 4.53 ± 0.17 h and the “total protein half-life in vivo” value [9] was 8.2 ± 0.45 h. The “total protein half-life in vivo” value [10] was 4.11 ± 0.61 h and the “total protein half-life in vivo” value [11] was 7.3 ± 0.38 h.
For “MLNSILVILCLIAVSAFFSMSEISLAASRKIKLKLLADEGNINAQRVLNMQENPGMFFTVVQIGLNAVAILGGIVGDAAFSPAFHSLFSRYMSAELSEQLSFILSFSLVTGMFILFADLTPKRIGMIAPEAVALRIINPMRFCLYVCTPLVWFFNGLANIIFRIFKLPMVRKDDITSDDIYAVVEAGALAGVLRKQEHELIENVFELESRTVPSSMTPRENVIWFDLHEDEQSLKNKVAEHPHSKFLVCNEDIDHIIGYVDSKDLLNRVLANQSLALNSGVQIRNTLIVPDTLTLSEALESFKTAGEDFAVIMNEYALVVGIITLNDVMTTLMGDLVGQGLEEQIVARDENSWLIDGGTPIDDVMRVLDIDEFPQSGNYETIGGFMMFMLRKIPKRTDSVKFAGYKFEVVDIDNYRIDQLLVTRIDSKATALSPKLPDAKDKEESVA [P0AE45]”, the “total protein half-life in vivo” value [1] was 5.65 ± 0.36 h, the “total protein half-life in vivo” value [2] was 6.93 ± 1.4 h and the “total protein half-life in vivo” value [3] was 4.5 ± 0.44 h. For the same sequence, the “total protein half-life in vivo” value [12] was 4.11 ± 0.21 h, the “total protein half-life in vivo” value [4] was 4.53 ± 0.24 h and the “total protein half-life in vivo” value [5] was 2.97 ± 0.18 h. For the same sequence, the “total protein half-life in vivo” value [6] was 5.16 ± 0.21 h, the “total protein half-life in vivo” value [7] was 8.79 ± 0.3 h and the “total protein half-life in vivo” value [8] was 4.33 ± 0.52 h. The “total protein half-life in vivo” value [9] was 7.63 ± 0.57 h, the “total protein half-life in vivo” value [10] was 5.01 ± 0.053 h and the “total protein half-life in vivo” value [11] was 9 ± 0.094 h.
In the case of “MIEIESRELADIPVLHAYPVGQKDTPLPCVIFYHGFTSSSLVYSYFAVALAQAGLRVIMPDAPDHGSRFSGDAARRLNQFWQILLQSMQEFTTLRAAIAEENWLLDDRLAVGGASMGAMTALGITARHPTVRCTASMMGSGYFTSLARSLFPPLIPETAAQQNEFNNIVAPLAEWEATNHLEQLSDRPLLLWHGLDDDVVPADESLRLQQALSETGRDKLLTCSWQPGVRHRITPEALDAAVTFFRQHL”, the “total protein half-life in vivo” value [1] is reported as 4.25 ± 0.61 h, the “total protein half-life in vivo” value [3] is reported as 4.061 ± 0.029 h and the “total protein half-life in vivo” value [12] is reported as 4.32 ± 0.38 h. The “total protein half-life in vivo” value [4] was 3.95 ± 0.12 h, the “total protein half-life in vivo” value [5] was 3.24 ± 0.097 h and the “total protein half-life in vivo” value [6] was 5.72 ± 0.33 h. For the same sequence, the “total protein half-life in vivo” value [7] was 11 ± 0.45 h, the “total protein half-life in vivo” value [8] was 4.11 ± 0.3 h and the “total protein half-life in vivo” value [9] was 6.87 ± 0.64 h. The “total protein half-life in vivo” value [10] was 5.95 ± 0.17 h and the “total protein half-life in vivo” value [11] was 12.2 ± 0.79 h.
With “MIALIQRVTRASVTVEGEVTGEIGAGLLVLLGVEKDDDEQKANRLCERVLGYRIFSDAEGKMNLNVQQAGGSVLVVSQFTLAADTERGMRPSFSKGASPDRAEALYDYFVERCRQQEMNTQTGRFAADMQVSLVNDGPVTFWLQV [P0A6M4]” the “total protein half-life in vivo” value [1] was 4.67 ± 0.29 h, the “total protein half-life in vivo” value [2] was 3.81 ± 0.19 h and the “total protein half-life in vivo” value [3] was 3.859 ± 0.026 h. The “total protein half-life in vivo” value [12] was 4.26 ± 0.52 h, the “total protein half-life in vivo” value [4] was 4.06 ± 0.17 h and the “total protein half-life in vivo” value [6] was 5.48 ± 0.15 h. For the same sequence, the “total protein half-life in vivo” value [7] was 10 ± 0.87 h, the “total protein half-life in vivo” value [8] was 3.84 ± 0.29 h and the “total protein half-life in vivo” value [9] was 6.66 ± 0.43 h. The “total protein half-life in vivo” value [10] was 5.52 ± 0.24 h and the “total protein half-life in vivo” value [11] was 11 ± 0.22 h.
In the case of “MQCALYDAGRCRSCQWIMQPIPEQLSAKTADLKNLLADFPVEEWCAPVSGPEQGFRNKAKMVVSGSVEKPLLGMLHRDGTPEDLCDCPLYPASFAPVFAALKPFIARAGLTPYNVARKRGELKYILLTESQSDGGMMLRFVLRSDTKLAQLRKALPWLHEQLPQLKVITVNIQPVHMAIMEGETEIYLTEQQALAERFNDVPLWIRPQSFFQTNPAVASQLYATARDWVRQLPVKHMWDLFCGVGGFGLHCATPDMQLTGIEIASEAIACAKQSAAELGLTRLQFQALDSTQFATAQGDVPELVLVNPPRRGIGKPLCDYLSTMAPRFIIYSSCNAQTMAKDIRELPGFRIERVQLFDMFPHTAHYEVLTLLVKQ”, the “total protein half-life in vivo” value [1] is reported as 5.35 ± 0.065 h, the “total protein half-life in vivo” value [2] is reported as 3.16 h and the “total protein half-life in vivo” value [3] is reported as 4.89 ± 0.31 h. For the same sequence, the “total protein half-life in vivo” value [12] was 5.02 ± 0.69 h, the “total protein half-life in vivo” value [4] was 4.32 ± 0.3 h and the “total protein half-life in vivo” value [5] was 3.6 h. For the same sequence, the “total protein half-life in vivo” value [6] was 5.35 ± 0.8 h, the “total protein half-life in vivo” value [7] was > 16 h and the “total protein half-life in vivo” value [8] was 5.51 h. The “total protein half-life in vivo” value [9] was 10.8 ± 1.5 h, the “total protein half-life in vivo” value [10] was 5.7 ± 0.55 h and the “total protein half-life in vivo” value [11] was 11.9 ± 1.2 h.
In the case of “MNIYRLSFVSCLVMAMPCAMAVEFNLNVLDKSMRDRIDISLLKEKGVIAPGEYFVSVAVNNNKISNGQKINWQKKGDKTIPCINDSLVDKFGLKPDIRQSLPQIDRCIDFSSRPEMLFNFDQANQQLNISIPQAWLAWHSENWAPPSTWKEGVAGVLMDYNLFASSYRPQDGSSSTNLNAYGTAGINAGAWRLRSDYQLNKTDSEDNHDQSGGISRTYLFRPLPQLGSKLTLGETDFSSNIFDGFSYTGAALASDDRMLPWELRGYAPQISGIAQTNATVTISQSGRVIYQKKVPPGPFIIDDLNQSVQGTLDVKVTEEDGRVNNFQVSAASTPFLTRQGQVRYKLAAGQPRPSMSHQTENETFFSNEVSWGMLSNTSLYGGLLISDDDYHSAAMGIGQNMLWLGALSFDVTWASSHFDTQQDERGLSYRFNYSKQVDATNSTISLAAYRFSDRHFHSYANYLDHKYNDSDAQDEKQTISLSVGQPITPLNLNLYANLLHQTWWNADASTTANITAGFNVDIGDWRDISISTSFNTTHYEDKDRDNQIYLSISLPFGNGGRVGYDMQNSSHSTIHRMSWNDTLDERNSWGMSAGLQSDRPDNGAQVSGNYQHLSSAGEWDISGTYAASDYSSVSSSWSGSFTATQYGAAFHRRSSTNEPRLMVSTDGVADIPVQGNLDYTNHFGIAVVPLISSYQPSTVAVNMNDLPDGVTVAENVIKETWIEGAIGYKSLASRSGKDVNVIIRNASGQFPPLGADIRQDDSGISVGMVGEEGHAWLSGVAENQLFTVVWGEQSCIIHLPERLEDTTKRLILPCH”, the “total protein half-life in vivo” value [1] is reported as 3.41 ± 0.16 h, the “total protein half-life in vivo” value [2] is reported as 2.97 h and the “total protein half-life in vivo” value [6] is reported as 4.23 h. For the same sequence, the “total protein half-life in vivo” value [8] was 2.94 h, the “total protein half-life in vivo” value [9] was 3.79 h and the “total protein half-life in vivo” value [10] was 3.94 h. The “total protein half-life in vivo” value [11] was 11 ± 0.78 h.
